Experimental data reported in US20230287082A1 (published 2023).

How the values were obtained:
[1] = target: human NKp30 (human) (UniProt O14931); experiment: BLI, immunoligand on anti-hFc tip
[2] = target: NKp30 on human NK cells (human) (UniProt O14931); experiment: cell-based or functional assay
[3] = target: human NKp30 (human) (UniProt O14931); experiment: BLI, ratio to ΔB7-H6_wt

Sequence of NKp30 on human NK cells (human) (O14931 19-201): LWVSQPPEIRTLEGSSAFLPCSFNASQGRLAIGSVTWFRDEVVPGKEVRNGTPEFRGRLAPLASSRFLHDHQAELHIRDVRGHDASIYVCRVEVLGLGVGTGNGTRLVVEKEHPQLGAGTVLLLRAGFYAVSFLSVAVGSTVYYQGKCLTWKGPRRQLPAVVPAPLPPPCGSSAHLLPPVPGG
Sequence of human NKp30 (human) (O14931 19-135 limits assumed): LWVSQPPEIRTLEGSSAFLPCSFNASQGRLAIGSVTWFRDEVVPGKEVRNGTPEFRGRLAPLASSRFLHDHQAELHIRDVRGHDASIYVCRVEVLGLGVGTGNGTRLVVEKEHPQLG

Binder | Kd [1] | koff [1] | kon [1] | A431 EC50 with PBMC (pM) [2] | A549 EC50 with PBMC (pM) [2] | EC50 (pM), A431 lysis with PBMC [2] | EC50 improvement compared to ΔB7-H6 wt [2] | KD improvement compared to ΔB7-H6 wt [3] | x-fold KD improvement [3] | x-fold Koff improvement [3] | A431 EC50 with NK cells (pM) [2] | A549 EC50 with NK cells (pM) [2] | increase in potency with purified NK cells on A431 compared to wild-type [2] | EC50 of A431 lysis with PBMC, initial screening [2] | enhanced potency compared to the wild-type ΔB7-H6 immunoligand, initial screening [2] | half-maximal killing activity, initial screening [2] | EC50 of tumor cell lysis, initial screening [2] | improved potency compared to wild-type ΔB7-H6, initial screening [2]
ΔB7-H6_S3#14-SEED-PGLALA (bispecific antibody, part only; not given: SEED Fc chains and hu225 Fab, part only) chain, part: DLKVEMMAGGTQITPLNDNVTIFCNIFYSQPLNITTMGITWFWKSLTFDKEVKVFEFYGDHQEAFRPGAIVSPWRLKSGDASLRLPGIQLEEAGEYRCEVVVTPYKAQGTVQLEVVASPAS | 34.5 nM | 0.0322 s⁻¹ | 933000 M⁻¹ s⁻¹ | 150 pM | 556 pM | 21 pM | 41 fold | 11.9 fold | 11.9 fold | 5.2 fold | – | – | – | – | – | – | – | –
ΔB7-H6_S2#10-SEED-PGLALA (bispecific antibody, part only; not given: SEED Fc chains and hu225 EGFR Fab, part only) chain, part: DLKVEMMAGGTQITPLNDNVTIFCNIFYSQPLNITLMGITWFWKSLTFDKEVKVFEFWGDHQEAFRPGAIVSPWGLKSGDASLRLPGIQLEEAGEYRCEVVVTPLKAQGTVQLEVVASPAS | 187 nM | 0.111 s⁻¹ | 597000 M⁻¹ s⁻¹ | – | – | 122 pM | 7 fold | 2.2 fold | 2.2 fold | 1.5 fold | – | – | – | – | – | – | – | –
ΔB7-H6_S2#11-SEED-PGLALA (bispecific antibody, part only; not given: SEED Fc chains and hu225 Fab, part only) chain, part: DLKVEMMAGGTQITPLNDNVTIFCNIFYSQPLNITTMGITWFWKSLTFDKEVKVFEFWQDHQEAFRPGAIVSPWRLKSGDASLRLPGIQLEEAGEYRCEVVVTPLKAQGTVQLEVVASPAS | 234 nM | 0.115 s⁻¹ | 491000 M⁻¹ s⁻¹ | – | – | 172 pM | 5 fold | 1.7 fold | 1.7 fold | 1.5 fold | – | – | – | – | – | – | – | –
ΔB7-H6_S2#13-SEED-PGLALA (bispecific antibody, part only; not given: SEED Fc chains and hu225 Fab, part only) chain, part: DLKVEMMAGGTQITPLNDNVTIFCNIFYSQPLNITSMGITWFWKSLTFDKEVKVFEFWGDHQEAFRPGAIVSPWRLKSGDASLRLPGIQLEEAGEYRCEVVVTPYKAQGTVQLEVVASPAS | 205 nM | 0.0842 s⁻¹ | 410000 M⁻¹ s⁻¹ | – | – | 171 pM | 5 fold | 2 fold | 2 fold | 2 fold | – | – | – | – | – | – | – | –
ΔB7-H6_S2#14-SEED-PGLALA (bispecific antibody, part only; not given: SEED Fc chains and hu225 Fab, part only) chain, part: DLKVEMMAGGTQITPLNDNVTIFCNIFYSQPLNITTMGITWFWKSLTFDKEVKVFEFFGDHQEAFRPGAIVSPWRLKSGDASLRLPGIQLEEAGEYRCEVVVTPYKAQGTVQLEVVASPAS | 217 nM | 0.124 s⁻¹ | 570000 M⁻¹ s⁻¹ | – | – | 158 pM | 5 fold | 1.9 fold | 1.9 fold | 1.4 fold | – | – | – | – | – | – | – | –
ΔB7-H6_S3#15-SEED-PGLALA (bispecific antibody, part only; not given: SEED Fc chains and hu225 Fab, part only) chain, part: DLKVEMMAGGTQITPLNDNVTIFCNIFYSQPLNITIMGITWFWKSLTFDKEVKVFEFWGDHQEAFRPGAIVSPWRLKSGDASLRLPGIQLEEAGEYRCEVVVTPYKAQGTVQLEVVASPAS | 12.4 nM | 0.0101 s⁻¹ | 817000 M⁻¹ s⁻¹ | 29.9 pM | 133 pM | 8.7 pM | 100 fold | 33 fold | 33 fold | 16.6 fold | 2.8 pM | 31.3 pM | 87 fold | – | – | – | – | –
ΔB7-H6_wt-SEED-PGLALA (bispecific antibody, part only; not given: SEED Fc chains and hu225 Fab, part only) chain, part: DLKVEMMAGGTQITPLNDNVTIFCNIFYSQPLNITSMGITWFWKSLTFDKEVKVFEFFGDHQEAFRPGAIVSPWRLKSGDASLRLPGIQLEEAGEYRCEVVVTPLKAQGTVQLEVVASPAS | 409 nM | 0.168 s⁻¹ | 412000 M⁻¹ s⁻¹ | 1840 pM | – | 868 pM | 1 fold | 1 fold | – | – | 245 pM | – | – | 1.1 nM | – | – | – | –
ΔB7-H6_S3#25-SEED-PGLALA (bispecific antibody, part only; not given: SEED Fc chains and hu225 Fab, part only) chain, part: DLKVEMMAGGTQITPLNDNVTIFCNIFYSQPLNITWMGITWFWKSLTFDKEVKVFEFYGDHQEAFRPGAIVSPWRLKSGDASLRLPGIQLEEAGEYRCEVVVTPYKAQGTVQLEVVASPAS | 65.2 nM | 0.0486 s⁻¹ | 745000 M⁻¹ s⁻¹ | 37.8 pM | 135 pM | 9.9 pM | 88 fold | 6.3 fold | 6.3 fold | 3.5 fold | 4.25 pM | 34.6 pM | – | – | 187 fold | 6 pM | – | –
ΔB7-H6_S3#31-SEED-PGLALA (bispecific antibody, part only; not given: SEED Fc chains and hu225 EGFR Fab, part only) chain, part: DLKVEMMAGGTQITPLNDNVTIFCNIFYSQPLNITIMGITWFWKSLTFDKEVKVFEFYGDHQEAFRPGAIVSPWRLKSGDASLRLPGIQLEEAGEYRCEVVVTPLKAQGTVQLEVVASPAS | 43.6 nM | 0.0269 s⁻¹ | 616000 M⁻¹ s⁻¹ | 34.8 pM | 224 pM | 17.5 pM | 50 fold | 9.4 fold | 9.4 fold | 6.3 fold | – | – | – | – | – | 25.1 pM | – | –
ΔB7-H6_S3#27-SEED-PGLALA (bispecific antibody, part only; not given: SEED Fc chains and hu225 EGFR Fab, part only) chain, part: DLKVEMMAGGTQITPLNDNVTIFCNIFYSQPLNITTMGITWFWKSLTFDKEVKVFEFWGDHQEAFRPGAIVSPWRLKSGDASLRLPGIQLEEAGEYRCEVIVTPYKAQGTVQLEVVASPAS | 83 nM | 0.0556 s⁻¹ | 669000 M⁻¹ s⁻¹ | 60.2 pM | 356 pM | 19.2 pM | 45 fold | 4.9 fold | 4.9 fold | 3 fold | – | – | – | – | – | – | 0.0276 nM | 41 fold
ΔB7-H6_S3#16-SEED-PGLALA (bispecific antibody, part only; not given: SEED Fc chains and hu225 Fab, part only) chain, part: DLKVEMMAGGTQITPLNDNVTIFCNIFYSQPLNITLMGITWFWKSLTFDKEVKVFEFYGDHQEAFRPGAIVSPWRLKSGDASLRLPGIQLEEAGEYRCEVVVTPYKAQGTVQLEVVASPAS | 28.7 nM | 0.0289 s⁻¹ | 1.01e+06 M⁻¹ s⁻¹ | 87.3 pM | 206 pM | 29.1 pM | 30 fold | 14.3 fold | 14.3 fold | 5.8 fold | – | – | – | – | – | – | – | –
ΔB7-H6_S3#18-SEED-PGLALA (bispecific antibody, part only; not given: SEED Fc chains and hu225 Fab, part only) chain, part: DLKVEMMAGGTQITPLNDNVTIFCNIFYSQPLNITYMGITWFWKSLTFDKEVKVFEFWGDHQEAFRPGAIVSPWRLKSGDASLRLPGIQLEEAGEYRCEVVVTPYKAQGTVQLEVVASPAS | 9.06 nM | 0.0136 s⁻¹ | 1.5e+06 M⁻¹ s⁻¹ | 51.1 pM | 132 pM | 19.8 pM | 44 fold | 45.1 fold | 45.1 fold | 12.4 fold | 4.31 pM | 42.5 pM | – | – | – | – | – | –
ΔB7-H6_S3#2-SEED-PGLALA (bispecific antibody, part only; not given: SEED Fc chains and hu225 EGFR Fab, part only) chain, part: DLKVEMMAGGTQITPLNDNVTIFCNIFYSQPLNITWMGITWFWKSLTFDKEVKVFEFWGDHQEAFRPGAIVSPWRLKSGDASLRLPGIQLEEAGEYRCEVVVTPYKAQGTVQLEVVASPAS | 11.7 nM | 0.0122 s⁻¹ | 1.04e+06 M⁻¹ s⁻¹ | – | – | – | – | – | – | – | – | – | – | – | – | – | – | –
ΔB7-H6_S2#4-SEED-PGLALA (bispecific antibody, part only; not given: SEED Fc chains and hu225 Fab, part only) chain, part: DLKVEMMAGGTQITPLNDNVTIFCNIFYSQPLNITHMGITWFWKSLTFDKEVKVFEFYADHQEAIRPGAIVSPWRLKSGDASLRLPGIQLEEAGEYRCEVVVTPYKAQGTVQLEVVASPAS | 147 nM | 0.122 s⁻¹ | 830000 M⁻¹ s⁻¹ | – | – | – | – | – | – | – | – | – | – | – | – | – | – | –
ΔB7-H6_S2#5-SEED-PGLALA (bispecific antibody, part only; not given: SEED Fc chains and hu225 Fab, part only) chain, part: DLKVEMMAGGTQITPLNDNVTIFCNIFYSQPLNITSMGITWLWKSLTFDKEVKVFEFWGDHQEAFRPGAIVSPWRLKSGDASLRLPGIQLEEAGEYRCEVFVTPYKAQGTVQLEVVASPAS | 253 nM | 0.148 s⁻¹ | 585000 M⁻¹ s⁻¹ | – | – | – | – | – | – | – | – | – | – | – | – | – | – | –
ΔB7-H6_S2#6-SEED-PGLALA (bispecific antibody, part only; not given: SEED Fc chains and hu225 EGFR Fab, part only) chain, part: DLKVEMMAGGTQITPLNDNVTIFCNIFYFQPLNITEMGITWFWKSLTFDKEVKVFEFFGDHQEAFRPGAIVSPWRLKSGDASLRLPGIQLEEAGEYRCEVIVTPLKAQGTVQLEVVASPAS | 285 nM | 0.376 s⁻¹ | 1.32e+06 M⁻¹ s⁻¹ | – | – | – | – | – | – | – | – | – | – | – | – | – | – | –
ΔB7-H6_S2#12-SEED-PGLALA (bispecific antibody, part only; not given: SEED Fc chains and hu225 Fab, part only) chain, part: DLKVEMMAGGTQITPLNDNVTIFCNIFYSQPLNITHMGITWLWKSLTFDKEVKVFEFYGDHQEAFRPGAIVSPWRLKSGDASLRLPGIQLEEAGEYRCEVVVTPLKAQGTVQLEVVASPAS | 291 nM | 0.162 s⁻¹ | 556000 M⁻¹ s⁻¹ | – | – | – | – | – | – | – | – | – | – | – | – | – | – | –
ΔB7-H6_S3#4-SEED-PGLALA (bispecific antibody, part only; not given: SEED Fc chains and hu225 Fab, part only) chain, part: DLKVEMMAGGTQITPLNDNVTIFCNIFYSQPLNITIMGITWFWKSLTFDKEVKVFEFWGDHQEAFRPGAIVSPWRLKSGDASLRLPGIQLEEAGEYRCEVVVTPLKAQGTVQLEVVASPAS | 23.9 nM | 0.0149 s⁻¹ | 621000 M⁻¹ s⁻¹ | – | – | – | – | – | – | – | – | – | – | – | – | – | – | –
ΔB7-H6_S3#20-SEED-PGLALA (bispecific antibody, part only; not given: SEED Fc chains and hu225 Fab, part only) chain, part: DLKVEMMAGGTQITPLNDNVTIFCNIFYSQPLNITHMGITWFWKSLTFDKEVKVFEFWGDHQEAFRPGAIVSPWRLKSGDASLRLPGIQLEEAGEYRCEVFVTPLKAQGTVQLEVVASPAS | 61.6 nM | 0.0642 s⁻¹ | 1.04e+06 M⁻¹ s⁻¹ | – | – | – | – | – | – | – | – | – | – | – | – | – | – | –
ΔB7-H6_S3#32-SEED-PGLALA (bispecific antibody, part only; not given: SEED Fc chains and hu225 EGFR Fab, part only) chain, part: DLKVEMMAGGTQITPLNDNVTIFCNIFYSQPLNITEMGITWFWKSLTFDKEVKVFEFWGDHQEAFRPGAIVSPWRLKSGDASLRLPGIQLEEAGEYRCEVVVTPVKAQGTVQLEVVASPAS | 188 nM | 0.0766 s⁻¹ | 409000 M⁻¹ s⁻¹ | – | – | – | – | – | – | – | – | – | – | – | – | – | – | –
